The values below come from patent publication US20120021993A1 (AJOU UNIVERSITY INDUSTRY ACADEMIC COOPERATION FOUNDATION, published 2012).

The target in one assay is cell surface DR5 (human, UniProt O14763 56-440). Briefly: cell-based or functional assay.
Assay [1] has as its target T1, human-derived cell death receptor 5, extracellular domain (amino acid residues 1-130), 6xHis tag (human, UniProt O14763 56-210).
T1 construct: extracellular domain; Expressed in E. coli; biotinylated for sorting and flow cytometry; also called DR5; TRAIL-receptor 2
Briefly: ELISA, coated target, A405. Here is the method: (§1) In order to measure the affinity and cross reactivity of the anti-DR4, -DR5 and -TNFα protein scaffold variants based on the Kringle domain structure to the target molecules, an enzyme-linked immunosorbent assay (ELISA) was performed. The target molecules DR4, DR5, TNFα and DcR1, DcR2 were attached to a 96 well EIA/RIA plate (COSTARCorning In., USA) by its reaction at 37° C. for 1 hour, and washed three times with 0.1% PBST (0.1% Tween20, pH 7.4, 137 mM NaCl, 10 mM Phosphate, 2.7 mM KCl, SIGMA-ALDRICH Co., USA) for 10 minutes. The target molecules were attached for 1 hour to a 96 well EIA/RIA plate in 1% PBSB (1% BSA, pH 7.4, 137 mM NaCl, 10 mM Phosphate, 2.7 mM KCl, SIGMA-ALDRICH Co., USA), and then washed three times with 0.1% PBST (0.1% Tween 20, pH 7.4, 137 mM NaCl, 10 mM Phosphate, 2.7 mM KCl, SIGMA-ALDRICH Co., USA) for 10 minutes. Then, the anti-DR4, -DR5 and -TNFα Kringle domain variants were bound, and washed three times with 0.1% PBST for 10 minutes. The anti-DR4, -DR5 and -TNFα Kringle domain variants were primarily bound to mouse-derived anti-c-myc 9e10 mAb (Ig Therapy, Korea), and secondarily bound to alkaline phosphatase (AP)-conjugated anti-mouse mAb (Sigma). Each of the Kringle domain variants was reacted with […] (pNPP, Sigma-aldrich Co., USA) and quantified at an absorbance of 405 nm.
For orientation: An ELISA detects its analyte on a solid surface through an enzyme-linked reagent.

Assay [2] has as its target T1, human-derived cell death receptor 5, …. Kind of assay: ELISA, coated target, A405. Here is the method: as §1
This is another data set of the same source.

The target is the same in assay [3]. Kind of assay: ELISA on coated DR5, KD548 alone, A405.
The target is the same in assay [4]. Kind of assay: ELISA on coated DR5, KD548 alone, A405. This is another data set of the same source.
The target is the same in assay [5]. Kind of assay: ELISA, coated target, A405 [lower panel]. Here is the method:
as §1

For assay [6], the target named is T2, human-derived cell death receptor 4, extracellular domain (amino acid residues 1-216), 6xHis tag (human, UniProt O00220 24-239).
T2 construct: extracellular domain; Expressed in E. coli; biotinylated for sorting and flow cytometry; residues 1-216; also called DR4; TRAIL-receptor 1
Briefly: yeast display, flow cytometry MFI [panel KD548].

Assay [7] deals with T1, human-derived cell death receptor 5, …. Briefly: competitive ELISA on coated DR5, biotinylated KD548 with KD506 (amount not given), A405.
Another assay deals with cell surface DR4 (human, UniProt O00220 24-468). Briefly: cell-based or functional assay.
Assay [8] deals with T2, human-derived cell death receptor 4, …. Kind of assay: ELISA, coated DR4, A405.
The target is the same in assay [9]. Briefly: ELISA, coated target, A405. Here is the method: as §1, with “The anti-DR4, -DR5 and -TNFα Kringle domain variants were primarily bound to mouse-derived anti-c-myc 9e10 mAb (Ig Therapy, Korea), and secondarily bound to alkaline phosphatase (AP)-conjugated anti-mouse mAb (Sigma).” left out
In order to analyze the affinities of the Fc-fused anti-DR4, -DR5 and -TNFα Kringle domains to target molecules, the affinities of the Fc-fused anti-DR4, -DR5 and -TNFα Kringle domains to the target molecules were analyzed using ELISA, as described in Example 8.

Assay [10] has the same target. Kind of assay: ELISA, coated target, A405. This is another data set of the same source.
Assay [11] shares this target. Briefly: ELISA on coated DR4, KD413 alone, A405.
The target is the same in assay [12]. Briefly: ELISA on coated DR4, KD413 alone, A405. This is another data set of the same source.
Assay [13] shares this target. Briefly: ELISA, coated target, A405 [upper panel]. Here is the method:
as §1

The target of assay [14] is T3, DcR1 (UniProt O14798 26-221, limits assumed).
T3 sequence (looked up): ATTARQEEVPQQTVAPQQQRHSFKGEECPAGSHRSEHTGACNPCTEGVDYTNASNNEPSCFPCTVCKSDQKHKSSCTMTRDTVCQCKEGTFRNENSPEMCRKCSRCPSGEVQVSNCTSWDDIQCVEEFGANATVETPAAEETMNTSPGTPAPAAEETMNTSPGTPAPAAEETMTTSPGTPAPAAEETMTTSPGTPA
Briefly: yeast display, flow cytometry MFI [panel KD413].

The target of another assay is T4, DcR2 (UniProt Q9UBN6 56-211, limits assumed).
T4 sequence (looked up): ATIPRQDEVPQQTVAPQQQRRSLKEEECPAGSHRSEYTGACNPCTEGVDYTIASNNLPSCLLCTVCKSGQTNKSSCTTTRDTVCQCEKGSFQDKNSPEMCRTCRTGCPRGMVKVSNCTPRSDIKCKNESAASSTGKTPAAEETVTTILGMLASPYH
Briefly: ELISA, coated target, single binder concentration not given, A405. Here is the method:
as §1

Assay [15] addresses T2, human-derived cell death receptor 4, …. Briefly: competitive ELISA on coated DR4, biotinylated KD413 with TRAIL (amount not given), A405.
Assay [16] has the same target. Kind of assay: competitive ELISA on coated DR4, biotinylated KD413 with KD415 (amount not given), A405.
For assay [17], the target named is T1, human-derived cell death receptor 5, …. Kind of assay: ELISA, homo-dimer against monomer.
The target is the same in assay [18]. Kind of assay: ELISA, target coated on the plate.
Assay [19] has as its target T2, human-derived cell death receptor 4, …. Kind of assay: ELISA, coated target, A405. Here is the method: as §1
This is another data set of the same source.

The target is the same in assay [20]. Kind of assay: ELISA on coated DR4, KD415 alone, A405.
For assay [21] the target is unchanged. Kind of assay: ELISA, coated target, A405 [lower panel]. Here is the method:
as §1

The target in assay [22] is T3, DcR1. Briefly: ELISA, coated target, single binder concentration not given, A405. Here is the method: as §1
Assay [23] deals with T2, human-derived cell death receptor 4, …. Kind of assay: competitive ELISA on coated DR4, biotinylated KD415 with TRAIL (amount not given), A405.
Assay [24] has as its target T1, human-derived cell death receptor 5, …. Kind of assay: ELISA, coated DR5, A405.
In assay [25] the target is T2, human-derived cell death receptor 4, …. Kind of assay: sandwich ELISA: DR4 coated, binder titrated, soluble DR5 detected, A405.

B1: KD548 (designed binder)
chain: CHQTQGPKYDGNKDKTHKGHKCQSWTKNRPHHHGNKIENEDENRFQKNYCRNPDNKHEPWCFTHGHRDKHELCHEPRC
notes: Soluble monomer from Pichia pastoris; also called anti-DR5 Kringle domain variant KD548; not shown: C-terminal myc tag-6xHis tag of pPICZaA
For the molecule B1, the “EC50 (a concentration of protein causing a 50% cell death), HL60, MTT assay” value in the assay with cell surface DR5 is 260 nM. Moreover, the “EC50 (read off the curve)” value in assay [1] is approximately 600 nM; in assay [2] it was approximately 200 nM; in [3], approximately 900 nM; in [4] it was approximately 600 nM; in assay [5], approximately 200 nM; in assay [7], approximately 600 nM. The binding result in [6] is listed as “binds”.

B2: KD413 (designed binder)
chain: CAKAEGTGYDGHEHKTHKGIRCQNWYKSKPHYHGHQFRDGDKIKNKKNYCRNPDPRAGPWCFTHGNRNRYELCNQPRC
notes: Soluble monomer from Pichia pastoris; also called anti-DR4 Kringle domain variant KD413; not shown: C-terminal myc tag-6xHis tag of pPICZaA
As for B2, the “EC50 (a concentration of protein causing a 50% cell death), Jurkat, MTT assay” value with cell surface DR4 came to 90 nM. In addition, the “EC50 (read off the curve)” value is approximately 200 nM in assay [8]; approximately 100 nM in [9]; approximately 100 nM in assay [10]; approximately 800 nM in assay [11]; approximately 200 nM in assay [12]; approximately 200 nM in assay [13]. The entries for the “EC50 (read off the curve)” value in [15] and in [16] were approximately 800 nM and approximately 400 nM, respectively. The binding result with DcR1 [14] and with DcR2 was “no binding” each time.

B3: anti-DR5 KD548 homo-dimer (designed binder)
chain: CHQTQGPKYDGNKDKTHKGHKCQSWTKNRPHHHGNKIENEDENRFQKNYCRNPDNKHEPWCFTHGHRDKHELCHEPRCGGGGSGGGGSGGGGSGGGGSCHQTQGPKYDGNKDKTHKGHKCQSWTKNRPHHHGNKIENEDENRFQKNYCRNPDNKHEPWCFTHGHRDKHELCHEPRC
Regarding B3, in assay [17], the “fold increase of affinity against the monomer” value was approximately 10 fold. For the same molecule, the affinity value in assay [18] is 53 nM.

B4: KD415 (designed binder)
chain: CTRSKGDEYDGHKHKTNRGLRCQHWPGTKPHFHGDKIKDRHGFRLKKNYCRNPDPQDQPWCFTNRHQHKNELCNQPRC
notes: Soluble monomer from Pichia pastoris; also called anti-DR4 Kringle domain variant KD415; not shown: C-terminal myc tag-6xHis tag of pPICZaA
Take B4: the “EC50 (a concentration of protein causing a 50% cell death), HL60, MTT assay” value in the assay with cell surface DR4 turned out to be 130 nM. For the same molecule, the “EC50 (a concentration of protein causing a 50% cell death), Jurkat, MTT assay” value with cell surface DR4 stood at 200 nM. Also, the “EC50 (read off the curve)” value is approximately 300 nM in assay [19]; approximately 300 nM in [10]; approximately 200 nM in assay [20]; approximately 300 nM in assay [21]; approximately 200 nM in assay [23]. Moreover, the binding result in the assay with DcR1 [22] and in the assay with DcR2 was “no binding” throughout.

B5: KD413-KD506 hetero-dimer (designed binder, not shown: small tags and cut ends)
chain: CAKAEGTGYDGHEHKTHKGIRCQNWYKSKPHYHGHQFRDGDKIKNKKNYCRNPDPRAGPWCFTHGNRNRYELCNQPRCGGGGSGGGGSGGGGSGGGGSCPEDRGHEYDGDGDKTNRGHGCQYWDQNKPHHHGHRDKDKFKHRIKKNYCRNPDYETGPWCFTNRYRNKNELCHEPRC
B5: the “EC50 (read off the curve)” value is approximately 300 nM in assay [8], approximately 200 nM in [24] and approximately 200 nM in [25].

B6: anti-DR5 KD506 homo-dimer (designed binder)
chain: CPEDRGHEYDGDGDKTNRGHGCQYWDQNKPHHHGHRDKDKFKHRIKKNYCRNPDYETGPWCFTNRYRNKNELCHEPRCGGGGSGGGGSGGGGSGGGGSCPEDRGHEYDGDGDKTNRGHGCQYWDQNKPHHHGHRDKDKFKHRIKKNYCRNPDYETGPWCFTNRYRNKNELCHEPRC
B6: the “fold increase of affinity against the monomer” value in assay [17] was approximately 10 fold. For the same molecule, in assay [18], the affinity value amounted to 31 nM.

As a reminder, the EC50 (read off the curve) is the concentration giving half of the maximal effect. A higher EC50 (read off the curve) goes with a less potent agent.
